US9938510B2, “Photobacterium sp. alpha-2-6-sialyltransferase variants” (The Regents of the University of California, priority 2014, dated 2018)

Experiment: Apparent sialyltransferase kinetics, GalNAcαSer as acceptor
Type: biochemical
Protocol: Reactions were carried out in duplicate at 20° C. for 20 minutes in a total volume of 10 μL in a proper buffer at the optimal pH according to the pH profile of the wild-type enzyme (see, Ding, 2011, supra). When LacβMU was used as an acceptor, the conditions were: Tris-HCl buffer (200 mM, pH 8.0), enzyme (0.3 μM), varied concentrations of LacβMU (0.1, 0.25, 0.4, 1.0, 2.0, 4.0, and 6.0 mM) with a fixed concentration of CMP-Neu5Ac (1.0 mM) or varied concentrations of CMP-Neu5Ac (0.1, 0.25, 0.4, 1.0, 2.0, 4.0, and 6.0 mM) with a fixed concentration of LacβMU (1.0 mM). When GalNAcα2AA was used as an acceptor, the conditions were: NaOAc-HOAc buffer (200 mM, pH 5.0), enzyme (6 μM), varied concentrations of GalNAcα2AA (0.5, 0.8, 1.0, 2.0, 4.0, 8.0, and 10.0 mM) and a fixed concentration of CMP-Neu5Ac (4.0 mM) or varied concentrations of CMP-Neu5Ac (0.5, 1.0, 2.0, 4.0, 5.0, 8.0, and 10.0 mM) with a fixed concentration of GalNAcα2AA (1.0 mM). When GalNAcαSer was used as an acceptor, the conditions were: Tris-HCl buffer (200 mM, pH 8.0), enzyme (0.6 μM), varied concentrations of GalNAcαSer (0.1, 0.25, 0.5, 1.0, 2.0, 4.0, 8.0, and 10.0 mM) and a fixed concentration of CMP-Neu5Ac (2.0 mM). […]

B1: A366G: Photobacterium sp. JH-ISH-224 α2-6-sialyltransferase residues 15-501, A366G point mutation, C-terminal His6; SEQ ID NO: 2 (protein)
chain: CNNSEENTQSIIKNDINKTIIDEEYVNLEPINQSNISFTKHSWVQTCGTQQLLTEQNKESISLSVVAPRLDDDEKYCFDFNGVSNKGEKYITKVTLNVVAPSLEVYVDHASLPTLQQLMDIIKSEEENPTAQRYIAWGRIVPTDEQMKELNITSFALINNHTPADLVQEIVKQAQTKHRLNVKLSSNTAHSFDNLVPILKELNSFNNVTVTNIDLYDDGSAEYVNLYNWRDTLNKTDNLKIGKDYLEDVINGINEDTSNTGTSSVYNWQKLYPANYHFLRKDYLTLEPSLHELRDYIGDSLKQMQWDGFKKFNSKQQELFLSIVNFDKQKLQNEYNSSNLPNFVFTGTTVWGGNHEREYYAKQQINVINNAINESSPHYLGNSYDLFFKGHPGGGIINTLIMQNYPSMVDIPSKISFEVLMMTDMLPDAVAGIASSLYFTIPAEKIKFIVFTSTETITDRETALRSPLVQVMIKLGIVKEENVLFWA
modifications: C-terminal His6; Synthetic Psp26ST(15-501) A366G
catalytic efficiency (kcat/Km) higher than the wild-type enzyme: 1.2 fold
